Measured values reported in US20210238298A1.

Target: CD86 mutant 1040 conjugated to an anti-CD40 antibody as part of a bispecific molecule (human)
Assay: inhibition ELISA: CD86 mutant 1040 on an anti-CD40 antibody pre-incubated with the soluble CTLA-4 in a dilution series, mixture added to coated human CTLA-4 (the competitor)

Chain of CD86 mutant 1040 conjugated to an anti-CD40 antibody as part of a bispecific molecule (human) (chain, as listed by the source limits assumed): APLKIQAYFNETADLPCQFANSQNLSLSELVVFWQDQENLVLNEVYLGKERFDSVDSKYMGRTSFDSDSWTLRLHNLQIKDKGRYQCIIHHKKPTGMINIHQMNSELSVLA

IC50 (read off the curve) | Substance
1 µg/mL | CTLA4-Fc (Fitzgerald, #30R-CD152) (from UniProt P16410 38-152) (Fc fusion)
0.8 µg/mL | soluble murine CTLA-4 (R&D systems) (from UniProt P09793 36-162) (receptor)
